What is called Kd is the equilibrium constant for the complex coming apart.

Data set [1] addresses PD-1 extracellular domain, recombinant (UniProt Q15116 Q15116:25-170). Kind of data set: ELONA.
A further data set addresses NSP7-8 complex (SARS-CoV-2, UniProt P0DTD1;P0DTD1 P0DTD1:3860-3942,P0DTD1:3943-4140). Kind of data set: ELONA. As to conditions: label: biotin.
The target in data set [2] is T1, SARS-CoV-2 spike RBD (wild type), recombinant (SARS-CoV-2, UniProt P0DTC2 P0DTC2:319-541). Kind of data set: EMSA. (In EMSA bound probe runs differently from free probe, usually more slowly.)
The target of data set [3] is T1, SARS-CoV-2 spike RBD (wild type), …. Kind of data set: ELONA.

PD-1 extracellular domain, recombinant, sequence (Q15116 25-170, one chain of several): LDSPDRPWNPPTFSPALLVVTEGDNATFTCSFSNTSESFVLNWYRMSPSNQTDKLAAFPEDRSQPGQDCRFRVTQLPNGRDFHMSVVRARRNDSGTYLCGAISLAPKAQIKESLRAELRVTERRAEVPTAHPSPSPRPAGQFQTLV

As to ACUUGGCCACGUCGACUGAAAUCCUCUUCCUGCAGGGCCAAGUG (ssRNA) [#2-1-18 full], the binding result (in data set [1]; in the data set with NSP7-8 complex) was “no binding” in each case.
Regarding ACUUGGCCACGUCGACUGAAAUCCUCUUCCUGCAGGGCCAAGUG (ssRNA, 2'-F on pyrimidines, 2'-OMe on purines) [#2-1-18-2'-F-O], the binding result in data set [2] was “binds”.
For the molecule ACUUGGCCAAUUACCGUAGUUUUUGUAGUCUGCAGGGCCAAGUG (ssRNA) [#5-2-15 full], the binding result (in data set [1]; with NSP7-8 complex) was “no binding” throughout. Moreover, the Kd in data set [3] worked out at 22.6 nM.
Consider ACUUGGCCAAUUACCGUAGUUUUUGUAGUCUGCAGGGCCAAGUG (ssRNA, 2'-F on pyrimidines, 2'-OMe on purines) [#5-2-15-2'-F-O], for which the binding result in data set [2] is reported as “binds”.
